Source: PMC10388305, “Synthesis and Evaluation of a Monomethyl Auristatin E—Integrin αvβ6 Binding Peptide–Drug Conjugate for Tumor Targeted Drug Delivery” (Journal of Medicinal Chemistry, 2023)
Ends that are not written are not given here.

What was measured:
[1] = tested on: glioblastoma U87MG xenograft mouse model; details: cited from earlier work
Source text: (§1) Wang et al. described a similar radiolabeling approach with copper-64 to imag ...

[2] = tested on: MDA-MB-435 breast cancer xenograft tumor model; details: copper-64 labeled; 4 h; cited from earlier work
Source text: as §1

BxPC-3 cells = test: In vitro cell blocking assay, BxPC-3; format: cell-based; details: 1 h, 37 °C, n = 3
Procedure: Cell binding and internalization assay. Binding and internalization were determined as previously described. In brief, bovine serum albumin (BSA, 0.5% w/v in PBS) was used to pretreat the assay tubes to prevent non-specific binding. Aliquots of [64Cu]2 or [ 64Cu]PDC-1 (≤1 μL, 7.4-18.5 KBq in 50 μL PBS, pH = 7.4) were added to a cell suspension (3.75 × 10 6 cells in 50 μL serum free medium), incubated for 1 h at 37 °C, and gently agitated every 5 minutes (n = 3/cell line/compound). The cells were pelleted by centrifugation at 200×g for 3 min and the supernatant collected. The cell pellet was washed with 0.5 mL serum free medium and the wash medium combined with the original supernatant. […] The fraction of bound radioactivity was determined with a γ-counter (by measuring cell pellet and combined supernatants). To determine the fraction of internalized radioactivity, the cells were re-pelleted, and re-suspended in acidic wash buffer (0.2 M sodium acetate, 0.5 M sodium chloride, pH = 2.5, 300 μL, 4 °C, 5 min) to release surface bound activity, followed by a wash with PBS (300 μL). The internalized fraction was determined with a γ-counter (cell pellet vs. radioactivity released into supernatant). A Wizard 1470 or Wizard 2 2470 automatic γ-counter (Perkin-Elmer, Waltham, MA) was used to measure radioactivity samples. […]
Figure S3. […] Data are expressed as mean ± SD. […]

Q: For “CDCRGDCFC (also: bicyclic or more (positions not given here)) [TNF-PDC]”, which Liver accumulation ([1]; 20 h, model not stated) is on record?
A: 16.22 ± 1.46 % ID/g

Q: And the Tumor uptake ([1]; copper-64 labeled, 4 h)?
A: 8.11 ± 0.88 % ID/g

Q: And the Tumor accumulation [2]?
A: 3.94 ± 0.48 % ID/g

Q: Which “Concentration of non-radioactive DOTA-PDC-1 required to block [64Cu]PDC-1 binding” value (BxPC-3 cells) does the source give for `CC[C@H](C)[C@@H]([C@@H](CC(=O)N1CCC[C@H]1[C@H](OC)[C@@H](C)C(=O)N[C@H](C)[C@@H](O)c1ccccc1)OC)N(C)C(=O)[C@@H](NC(=O)[C@H](C(C)C)N(C)C(=O)OCc1ccc(NC(=O)[C@H](CCCNC(N)=O)NC(=O)[C@@H](NC(=O)CCOCCOCCNC(=O)CCN2C(=O)CC(SC[C@H](NC(=O)CN3CCN(CC(=O)O)CCN(CC(=O)O)CCN(CC(=O)O)CC3)C(=O)NCCOCCOCCOCCOCCOCCOCCOCCOCCOCCOCCOCCOCCOCCOCCOCCOCCOCCOCCOCCOCCOCCOCCOCCOCCOCCOCCOCCOCCC(=O)N[C@@H](CC(N)=O)C(=O)N[C@@H](C)C(=O)N[C@H](C(=O)N3CCC[C@H]3C(=O)N[C@@H](CC(N)=O)C(=O)N[C@@H](CC(C)C)C(=O)N[C@@H](CCCNC(=N)N)C(=O)NCC(=O)N[C@@H](CC(=O)O)C(=O)N[C@@H](CC(C)C)C(=O)N[C@@H](CCC(N)=O)C(=O)N[C@H](C(=O)N[C@@H](CC(C)C)C(=O)N[C@@H](C)C(=O)N[C@@H](CCC(N)=O)C(=O)N[C@@H](CCCNC(=N)N)C(=O)N[C@H](C(=O)N[C@@H](C)C(=O)N[C@@H](CCCNC(=N)N)C(=O)N[C@H](C(=O)NCCOCCOCCOCCOCCOCCOCCOCCOCCOCCOCCOCCOCCOCCOCCOCCOCCOCCOCCOCCOCCOCCOCCOCCOCCOCCOCCOCCOCCC(N)=O)[C@@H](C)O)C(C)C)C(C)C)C(C)C)C2=O)C(C)C)cc1)C(C)C` (stereo partly shown) [DOTA-PDC-1] here?
A: 80 to 160 nM
